Assay results as given in publication PMC3792671.

Target: RepSTK1(1-269), residues 1-269 of the rolling-circle replication initiator protein RepSTK1 of plasmid pSTK1 (Geobacillus stearothermophilus (plasmid pSTK1))
Experiment: SEC-MALS; analytical gel filtration on Superdex S75 10/300, 50 µl protein loaded, 50 mM Tris-HCl pH 7.5, 500 mM KCl; eluate through DAWN HELIOS II MALLS detector; dimer

Substance “RepSTK1(1-269), residues 1-269 of the rolling-circle replication initiator protein RepSTK1 of plasmid pSTK1 (domain or fragment)” has a stoichiometry N of 2.
